Biological target: T1, PEG2000-peptide-PTX
T1 chain: GPLGIAGQ

B1: Human active MMP2 protein (MW 66,000 Da) (protein)
chain: YNFFPRKPKWDKNQITYRIIGYTPDLDPETVDDAFARAFQVWSDVTPLRFSRIHDGEADIMINFGRWEHGDGYPFDGKDGLLAHAFAPGTGVGGDSHFDDDELWTLGEGQVVRVKYGNADGEYCKFPFLFNGKEYNSCTDTGRSDGFLWCSTTYNFEKDGKYGFCPHEALFTMGGNAEGQPCKFPFRFQGTSYDSCTTEGRTDGYRWCGTTEDYDRDKKYGFCPETAMSTVGGNSEGAPCVFPFTFLGNKYESCTSAGRSDGKMWCATTANYDDDRKWGFCPDQGYSLFLVAAHEFGHAMGLEHSQDPGALMAPIYTYTKNFRLSQDDIKGIQELYGASPDIDLGTGPTPTLGPVTPEICKQDIVFDGIAQIRGEIFFFKDRFIWRTVTPRDKPMGPLLVATFWPELPEKIDAVYEAPQEEKAVFFAGNEYWIYSASTLERGYPKPLTSLGLPPDVQRVDAAFNWSKNKKTYIFAGDKFWRYNEVKKKMDPGFPKLIADAWNAIPDNLDAVVDLQGGGHSYFFKGAYYLKLENQSLKSVKFGSIKSDWLGC
For B1, the “enzymatic digestion followed by TLC (5 ng/µL human MMP2)” value was “the MMP2 completely cleaved the peptide linker resulting in two digestion fragments (IAGQ-PTX and PEG-GPLG)”.

— patent publication US20150306241
